This passage reports Ki and Km results from PMC6692406, “Optimization of a reduced enzymatic reaction cascade for the production of L-alanine” (Scientific Reports, 2019).

A word on the Ki: it is the dissociation constant of the complex between target and ligand, obtained from inhibition or displacement. A low value points to tighter binding. The Km is the concentration of substrate that gives half-maximal velocity.

Data set [1] deals with T1, CcDHAD (dihydroxyacid dehydratase) (Caulobacter vibrioides, UniProt Q9A9Z2).
T1 construct: gene xylD; codon-optimised gene in pET28a, recombinant in E. coli BL21(DE3), purified on His GraviTrap; MnCl2 added before freezing
T1 sequence (Q9A9Z2 1-595): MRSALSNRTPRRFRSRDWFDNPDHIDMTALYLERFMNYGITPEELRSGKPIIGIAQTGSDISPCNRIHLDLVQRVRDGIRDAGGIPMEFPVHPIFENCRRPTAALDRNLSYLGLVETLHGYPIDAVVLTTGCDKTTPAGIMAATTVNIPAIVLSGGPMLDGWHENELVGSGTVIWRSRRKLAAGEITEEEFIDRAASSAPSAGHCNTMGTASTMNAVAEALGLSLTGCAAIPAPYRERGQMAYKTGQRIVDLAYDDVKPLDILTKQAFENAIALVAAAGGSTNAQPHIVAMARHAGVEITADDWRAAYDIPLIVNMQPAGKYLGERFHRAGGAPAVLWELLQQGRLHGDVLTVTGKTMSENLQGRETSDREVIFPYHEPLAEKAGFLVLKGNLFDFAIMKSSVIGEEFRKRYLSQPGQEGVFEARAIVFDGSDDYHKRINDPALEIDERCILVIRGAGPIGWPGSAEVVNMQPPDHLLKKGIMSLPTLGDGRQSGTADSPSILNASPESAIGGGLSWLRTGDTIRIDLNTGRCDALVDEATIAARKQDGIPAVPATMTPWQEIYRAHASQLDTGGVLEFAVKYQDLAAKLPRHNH
The data set can be described thus: inhibition of D-gluconate dehydration (experimental analysis in Figure S2). The data set is classed as biochemical.

Substrate in data set [2]: O=C(O)[C@H](O)[C@@H](O)[C@H](O)[C@H](O)CO
The data set can be described thus: purified protein. The settings on record: 0.2-20 mM D-gluconate, 1 mM NAD, 50 °C, 100 mM HEPES pH 7.35, 100 mM ammonium sulfate, enzyme stored with MnCl2. The data set is classed as biochemical, Caulobacter vibrioides.

Substrate in data set [3]: CC(=O)C(=O)O
The data set can be described thus: purified protein. It is filed as biochemical, Archaeoglobus fulgidus. The conditions noted are these: 0.1-1 mM pyruvate, 0.2 mM NADH, 100 mM (NH4)2SO4, 50 °C, 100 mM HEPES pH 7.35.

Substrate in data set [4]: NC(=O)C1=CN([C@@H]2O[C@H](COP(=O)(O)OP(=O)(O)OC[C@H]3O[C@@H](n4cnc5c(N)ncnc54)[C@H](O)[C@@H]3O)[C@@H](O)[C@H]2O)C=CC1
As to the kind of experiment: purified protein. The data set is classed as biochemical, Archaeoglobus fulgidus. The conditions noted are these: 0.005-0.3 mM NADH, 1 mM pyruvate, 100 mM (NH4)2SO4, 50 °C, 100 mM HEPES pH 7.35, varied: cofactor.

Substrate in data set [5]: O=C(O)C(=O)C[C@H](O)[C@H](O)CO
As to the kind of experiment: purified protein. The conditions noted are these: 0.03-3 mM KDG, 1 mM NAD, 50 °C, 100 mM HEPES pH 7.35, 100 mM ammonium sulfate. It is filed as biochemical, Picrophilus oshimae.

Substrate in data set [6]: O=C[C@H](O)CO
As to the kind of experiment: purified protein. The conditions noted are these: substrate not named in table (D-glyceraldehyde from the cascade), cofactor NAD, 50 °C, 100 mM HEPES pH 7.35, 100 mM ammonium sulfate.

Substrate in data set [7]: NC(=O)c1ccc[n+]([C@@H]2O[C@H](COP(=O)(O)OP(=O)(O)OC[C@H]3O[C@@H](n4cnc5c(N)ncnc54)[C@H](O)[C@@H]3O)[C@@H](O)[C@H]2O)c1
The data set can be described thus: purified protein. The settings on record: 50 °C, 100 mM HEPES pH 7.35, 100 mM ammonium sulfate, varied: cofactor. The data set is classed as biochemical, Methanocaldococcus jannaschii.

In data set [1], `O=C(O)[C@H](O)CO` [D-glycerate] showed a Ki of approximately 500 µM.

B1: CcDHAD (dihydroxyacid dehydratase) (Caulobacter vibrioides CB15) (protein)
chain: MRSALSNRTPRRFRSRDWFDNPDHIDMTALYLERFMNYGITPEELRSGKPIIGIAQTGSDISPCNRIHLDLVQRVRDGIRDAGGIPMEFPVHPIFENCRRPTAALDRNLSYLGLVETLHGYPIDAVVLTTGCDKTTPAGIMAATTVNIPAIVLSGGPMLDGWHENELVGSGTVIWRSRRKLAAGEITEEEFIDRAASSAPSAGHCNTMGTASTMNAVAEALGLSLTGCAAIPAPYRERGQMAYKTGQRIVDLAYDDVKPLDILTKQAFENAIALVAAAGGSTNAQPHIVAMARHAGVEITADDWRAAYDIPLIVNMQPAGKYLGERFHRAGGAPAVLWELLQQGRLHGDVLTVTGKTMSENLQGRETSDREVIFPYHEPLAEKAGFLVLKGNLFDFAIMKSSVIGEEFRKRYLSQPGQEGVFEARAIVFDGSDDYHKRINDPALEIDERCILVIRGAGPIGWPGSAEVVNMQPPDHLLKKGIMSLPTLGDGRQSGTADSPSILNASPESAIGGGLSWLRTGDTIRIDLNTGRCDALVDEATIAARKQDGIPAVPATMTPWQEIYRAHASQLDTGGVLEFAVKYQDLAAKLPRHNH
notes: codon-optimised gene in pET28a, recombinant in E. coli BL21(DE3), purified on His GraviTrap; MnCl2 added before freezing
With B1, the Km in data set [2] came to 3200 µM.

B2: AfAlaDH (L-alanine dehydrogenase) (Archaeoglobus fulgidus DSM 4304) (protein)
chain: METLILTQEEVESLISMDEAMNAVEEAFRLYALGKAQMPPKVYLEFEKGDLRAMPAHLMGYAGLKWVNSHPGNPDKGLPTVMALMILNSPETGFPLAVMDATYTTSLRTGAAGGIAAKYLARKNSSVFGFIGCGTQAYFQLEALRRVFDIGEVKAYDVREKAAKKFVSYCEDRGISASVQPAEEASRCDVLVTTTPSRKPVVKAEWVEEGTHINAIGADGPGKQELDVEILKKAKIVVDDLEQAKHGGEINVAVSKGVIGVEDVHATIGEVIAGLKDGRESDEEITIFDSTGLAIQDVAVAKVVYENALSKNVGSKIKFFRI
notes: codon-optimised gene in pET24a, recombinant in E. coli BL21(DE3), purified by heat treatment (70 °C) and desalting
On to B2, for which the Michaelis constant (Km) stood at 200 µM in data set [3] and 60 µM in data set [4].

B3: PtKDGA (2-keto-3-deoxygluconate aldolase) (Picrophilus oshimae DSM 9789) (protein)
chain: MITPLDAHGNIDYNATNILIKYLEGINVDYLFPMGSTGVFPYFTLKERKDFLKFVRENSKKPIMAGVGSSSINEVNELMKFSMDIGIEAAVLMPPYYIKLNQEAIYHYYKEILSSNDMDLLIYNIPQFTNKIDPETVKNLKSEFSSVKGVKDSSADIRGFMEMLSLSDDDFAVFQGQDDLLFTSLELGASGGVCGTTNFSDGIVRLYHEYKNNREMALKIEKNDVIPLMKKLGKYQFPNAYYEYFYKKNNINGGYRPPMYRVGIEI
notes: codon-optimised gene in pET28a, recombinant in E. coli BL21(DE3), heat treated (65 °C) and purified on His GraviTrap
Take B3: in data set [5], the Km is 1100 µM.

B4: MjALDH (aldehyde dehydrogenase) (Methanocaldococcus jannaschii DSM 2661) (protein)
chain: MFIDGKWINREDMDVINPYSLEVIKKIPALSREEAKEAIDTAEKYKEVMKNLPITKRYNILMNIAKQIKEKKEELAKILAIDAGKPIKQARVEVERSIGTFKLAAFYVKEHRDEVIPSDDRLIFTRREPVGIVGAITPFNFPLNLSAHKIAPAIATGNVIVHHPSSKAPLVCIELAKIIENALKKYNVPLGVYNLLTGAGEVVGDEIVVNEKVNMISFTGSSKVGELITKKAGFKKIALELGGVNPNIVLKDADLNKAVNALIKGSFIYAGQVCISVGMILVDESIADKFIEMFVNKAKVLNVGNPLDEKTDVGPLISVEHAEWVEKVVEKAIDEGGKLLLGGKRDKALFYPTILEVDRDNILCKTETFAPVIPIIRTNEEEMIDIANSTEYGLHSAIFTNDINKSLKFAENLEFGGVVINDSSLFRQDNMPFGGVKKSGLGREGVKYAMEEMSNIKTIIISK
notes: codon-optimised gene in pET28a (NcoI/XhoI), recombinant in E. coli BL21(DE3), purified by heat treatment (70 °C) and desalting
Turning to B4, the Km in data set [6] and in data set [7] was 300 µM in each case.
